From article PMC8458377 (Nature Communications, 2021) come the findings set out here.

Data set [1] deals with the molecule itself. Description: SEC-MALLS; 100-400 µM loaded in 100 µL on Superdex INCREASE 200 10/300 GL in Acetate Buffer (50 mM sodium acetate, 300 mM NaCl, 1 mM TCEP pH 5.0), 1.0 mL/min.
Data set [2] deals with the molecule itself. Description: AUC; multispeed sedimentation equilibrium (18,000, 21,000, 26,000 rpm), Acetate Buffer, global fit to a monomer-dimer-tetramer model; constant of: dimer to monomers (KD1-2).
Data set [3] deals with the molecule itself. The experiment in a line: AUC; multispeed sedimentation equilibrium (18,000, 21,000, 26,000 rpm), Acetate Buffer, global fit to a monomer-dimer-tetramer model; constant of: tetramer to dimers (KD2-4).
Data set [4] concerns the molecule itself. Description: crystal structure; sitting drop vapour diffusion at 18 °C; spacegroup P6_(5)22, three copies in the asymmetric unit arranged as two dimer interfaces.
Data set [5] concerns the molecule itself. Description: AUC; sedimentation velocity, 50,000 rpm, 293 K, Acetate Buffer, interference data, 30-181 µM, C(S) analysis.

B1: p18m-I269F (p18m_AUG2-I269F) (domain or fragment, S. cerevisiae, UniProt P08405 259-355, looked up)
chain: MQSDTQEANDFVTLANLQYNGSTPADAFETKVTNIIDRLNNNGIHINNKVACQLIMRGLSGEYKFLRYTRHRHLNMTVAELFLDIHAIYEEQQGSRN
notes: S. cerevisiae Ty1A (Ty1 Gag), Uniprot P08405, residues M259-N355 with I269F; source: E. coli BL21 (DE3), purified
For B1, in data set [1], the stoichiometry N (in general, a count of units in the complex or per binding partner) worked out at 2. In addition, the Kd (usually the constant that tells how readily two partners part at equilibrium) worked out at 0.74 µM in data set [2] and 45.3 µM in data set [3].

B2: p18m (p18m_AUG2), Ty1 Gag residues M259-N355 (domain or fragment, S. cerevisiae, UniProt P08405 259-355, looked up)
chain: MQSDTQEANDIVTLANLQYNGSTPADAFETKVTNIIDRLNNNGIHINNKVACQLIMRGLSGEYKFLRYTRHRHLNMTVAELFLDIHAIYEEQQGSRN
notes: S. cerevisiae Ty1A (Ty1 Gag), Uniprot P08405, residues M259-N355, starting at the AUG2 methionine; also called WT p18m; source: E. coli BL21 (DE3), purified (Ni-NTA, gel filtration in Acetate Buffer)
On to B2, for which the “stoichiometry N” value in data set [1] was determined as 2. Besides, the equilibrium dissociation constant (Kd) in data set [2] is 0.73 µM; in data set [3] it was 43.2 µM.

B3: Seleno-methionine p18m_AUG2 (crystallised) (domain or fragment, S. cerevisiae, UniProt P08405 259-355, looked up)
chain: MQSDTQEANDIVTLANLQYNGSTPADAFETKVTNIIDRLNNNGIHINNKVACQLIMRGLSGEYKFLRYTRHRHLNMTVAELFLDIHAIYEEQQGSRN
modifications: seleno-methionine substituted
notes: S. cerevisiae Ty1A (Ty1 Gag), Uniprot P08405, residues M259-N355; also called Se-Met p18m_(AUG2); source: E. coli B834 (DE3) in seleno-methionine medium, purified (Ni-NTA, gel filtration in Acetate Buffer)
Turning to B3, the binding result in data set [4] was “binds”.

B4: p18m-F323S (domain or fragment, S. cerevisiae, UniProt P08405 259-355, looked up)
chain: MQSDTQEANDIVTLANLQYNGSTPADAFETKVTNIIDRLNNNGIHINNKVACQLIMRGLSGEYKSLRYTRHRHLNMTVAELFLDIHAIYEEQQGSRN
notes: S. cerevisiae Ty1A (Ty1 Gag), Uniprot P08405, with F323S; also called Dimer-2 interface-mutant p18m-F323S; source: E. coli BL21 (DE3), purified
B4: in data set [1], the “stoichiometry N” value was found to be 2.

B5: p18m_AUG2-A273C (domain or fragment, S. cerevisiae, UniProt P08405 259-355, looked up)
chain: MQSDTQEANDIVTLCNLQYNGSTPADAFETKVTNIIDRLNNNGIHINNKVACQLIMRGLSGEYKFLRYTRHRHLNMTVAELFLDIHAIYEEQQGSRN
notes: S. cerevisiae Ty1A (Ty1 Gag), Uniprot P08405, residues M259-N355 with A273C; source: bacterially expressed (E. coli), purified
For the protein B5, in data set [1], the “stoichiometry N” value came out at 2.

B6: p18m-A273V (p18m_AUG2-A273V), solution studies (domain or fragment, S. cerevisiae, UniProt P08405 259-355, looked up)
chain: MQSDTQEANDIVTLVNLQYNGSTPADAFETKVTNIIDRLNNNGIHINNKVACQLIMRGLSGEYKFLRYTRHRHLNMTVAELFLDIHAIYEEQQGSRN
notes: S. cerevisiae Ty1A (Ty1 Gag), Uniprot P08405, residues M259-N355 with A273V; Tag removal is described only for the crystallographic sample; source: E. coli BL21 (DE3), purified
Take B6: the “stoichiometry N” value in data set [5] worked out at 2. Besides, the Kd in data set [2] was determined as 0.34 µM; in data set [3], 51.8 µM.

B7: p18m_AUG1, Ty1 Gag residues M249-N355 (crystallised) (domain or fragment, S. cerevisiae, UniProt P08405 249-355, looked up)
chain: MKILSKSIEKMQSDTQEANDIVTLANLQYNGSTPADAFETKVTNIIDRLNNNGIHINNKVACQLIMRGLSGEYKFLRYTRHRHLNMTVAELFLDIHAIYEEQQGSRN
notes: S. cerevisiae Ty1A (Ty1 Gag), Uniprot P08405, residues M249-N355, starting at the AUG1 methionine; Residues D262 to Q351 are visible in the map; source: E. coli BL21 (DE3), purified (Ni-NTA, carboxypeptidase A digestion, gel filtration)
On to B7, for which the binding result in data set [4] is recorded as “binds”.
